Source: PMC9508527, “Two-component carnitine monooxygenase from Escherichia coli: functional characterization, inhibition and mutagenesis of the molecular interface” (Bioscience Reports, 2022)

How the values were obtained:
Experiment in all cases: cell-based or functional assay
YeaW variant R83Q = target: T1, YeaW variant R83Q (E. coli, UniProt P0ABR7 1-374, R83Q)
T1 sequence (looked up): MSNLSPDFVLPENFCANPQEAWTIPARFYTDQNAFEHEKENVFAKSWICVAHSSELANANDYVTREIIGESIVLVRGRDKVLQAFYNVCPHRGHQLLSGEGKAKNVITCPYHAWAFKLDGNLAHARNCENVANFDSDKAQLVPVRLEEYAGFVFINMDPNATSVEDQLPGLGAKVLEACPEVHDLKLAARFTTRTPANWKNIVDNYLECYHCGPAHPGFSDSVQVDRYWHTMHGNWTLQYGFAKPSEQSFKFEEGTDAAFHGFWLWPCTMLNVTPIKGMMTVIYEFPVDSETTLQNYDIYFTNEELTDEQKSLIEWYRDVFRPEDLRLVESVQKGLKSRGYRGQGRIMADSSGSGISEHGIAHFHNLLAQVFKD

YeaW variant D135S = target: T2, YeaW variant D135S (E. coli, UniProt P0ABR7 1-374, D135S)
T2 sequence (looked up): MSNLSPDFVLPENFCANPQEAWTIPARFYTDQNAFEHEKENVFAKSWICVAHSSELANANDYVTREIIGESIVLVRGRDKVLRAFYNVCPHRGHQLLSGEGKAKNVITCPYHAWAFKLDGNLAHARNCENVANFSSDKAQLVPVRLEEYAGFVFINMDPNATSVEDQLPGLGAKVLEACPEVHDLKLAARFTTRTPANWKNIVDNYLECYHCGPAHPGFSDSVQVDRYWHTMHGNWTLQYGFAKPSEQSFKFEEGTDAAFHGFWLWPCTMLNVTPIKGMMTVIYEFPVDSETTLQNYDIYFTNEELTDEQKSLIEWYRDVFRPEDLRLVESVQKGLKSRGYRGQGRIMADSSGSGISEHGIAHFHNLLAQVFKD

YeaW variant D221S = target: T3, YeaW variant D221S (E. coli, UniProt P0ABR7 1-374, D221S)
T3 sequence (looked up): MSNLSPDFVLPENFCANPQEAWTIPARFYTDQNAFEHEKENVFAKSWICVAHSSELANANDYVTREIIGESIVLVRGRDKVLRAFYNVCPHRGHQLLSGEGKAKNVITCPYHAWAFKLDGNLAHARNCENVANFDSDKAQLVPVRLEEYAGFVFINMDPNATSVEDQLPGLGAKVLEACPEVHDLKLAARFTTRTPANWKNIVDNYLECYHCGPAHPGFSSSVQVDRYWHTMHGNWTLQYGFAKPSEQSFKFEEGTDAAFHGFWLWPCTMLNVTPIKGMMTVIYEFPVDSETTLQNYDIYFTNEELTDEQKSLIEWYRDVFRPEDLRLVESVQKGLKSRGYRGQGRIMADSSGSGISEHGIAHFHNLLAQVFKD

YeaW variant K117E = target: T4, YeaW variant K117E (E. coli, UniProt P0ABR7 1-374, K117E)
T4 sequence (looked up): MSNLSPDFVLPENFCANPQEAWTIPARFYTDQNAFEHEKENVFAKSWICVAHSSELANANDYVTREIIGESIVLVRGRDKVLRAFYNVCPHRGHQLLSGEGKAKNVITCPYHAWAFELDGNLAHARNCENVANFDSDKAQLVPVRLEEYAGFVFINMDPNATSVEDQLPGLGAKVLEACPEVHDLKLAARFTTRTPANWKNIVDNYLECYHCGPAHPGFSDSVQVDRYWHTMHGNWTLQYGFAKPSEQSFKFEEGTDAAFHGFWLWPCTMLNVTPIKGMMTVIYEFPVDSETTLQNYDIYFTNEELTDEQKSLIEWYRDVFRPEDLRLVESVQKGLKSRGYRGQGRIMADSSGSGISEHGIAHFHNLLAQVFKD

YeaW variant K138S = target: T5, YeaW variant K138S (E. coli, UniProt P0ABR7 1-374, K138S)
T5 sequence (looked up): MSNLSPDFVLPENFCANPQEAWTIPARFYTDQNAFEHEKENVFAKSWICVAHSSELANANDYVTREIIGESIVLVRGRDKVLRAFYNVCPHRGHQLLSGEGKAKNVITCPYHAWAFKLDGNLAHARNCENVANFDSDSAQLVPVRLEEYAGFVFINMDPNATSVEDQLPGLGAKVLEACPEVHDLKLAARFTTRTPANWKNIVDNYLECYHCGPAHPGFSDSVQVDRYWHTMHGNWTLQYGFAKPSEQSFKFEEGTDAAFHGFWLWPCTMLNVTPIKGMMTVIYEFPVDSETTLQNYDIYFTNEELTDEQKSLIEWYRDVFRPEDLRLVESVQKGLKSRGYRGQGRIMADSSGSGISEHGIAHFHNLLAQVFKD

YeaW variant K117S = target: T6, YeaW variant K117S (E. coli, UniProt P0ABR7 1-374, K117S)
T6 sequence (looked up): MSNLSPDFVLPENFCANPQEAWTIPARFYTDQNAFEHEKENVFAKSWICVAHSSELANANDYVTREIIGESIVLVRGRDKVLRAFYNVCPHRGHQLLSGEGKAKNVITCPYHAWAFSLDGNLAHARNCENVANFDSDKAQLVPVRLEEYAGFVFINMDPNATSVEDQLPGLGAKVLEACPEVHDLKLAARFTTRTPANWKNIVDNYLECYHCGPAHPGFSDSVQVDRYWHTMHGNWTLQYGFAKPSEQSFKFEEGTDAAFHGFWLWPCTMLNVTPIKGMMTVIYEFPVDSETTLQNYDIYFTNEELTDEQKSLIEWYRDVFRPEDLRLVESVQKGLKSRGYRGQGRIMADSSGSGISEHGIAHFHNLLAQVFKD

YeaW variant E330S = target: T7, YeaW variant E330S (E. coli, UniProt P0ABR7 1-374, E330S)
T7 sequence (looked up): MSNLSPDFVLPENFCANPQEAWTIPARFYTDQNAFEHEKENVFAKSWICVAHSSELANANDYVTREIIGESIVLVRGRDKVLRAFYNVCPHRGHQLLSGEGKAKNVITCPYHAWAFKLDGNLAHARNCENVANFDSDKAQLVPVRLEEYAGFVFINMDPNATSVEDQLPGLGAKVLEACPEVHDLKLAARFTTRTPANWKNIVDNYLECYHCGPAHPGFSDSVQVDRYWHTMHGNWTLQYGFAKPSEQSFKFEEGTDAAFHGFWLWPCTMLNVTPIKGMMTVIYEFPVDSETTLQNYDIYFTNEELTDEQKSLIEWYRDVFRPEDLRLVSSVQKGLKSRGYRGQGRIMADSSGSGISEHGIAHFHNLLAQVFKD

B1: YeaX, reductase component of carnitine monooxygenase from E. coli (enzyme, UniProt P76254 1-321, looked up)
chain: MSDYQMFEVQVSQVEPLTEQVKRFTLVATDGKPLPAFTGGSHVIVQMSDGDNQYSNAYSLLSSPHDTSCYQIAVRLEENSRGGSRFLHQQVKVGDRLTISTPNNLFALIPSARKHLFIAGGIGITPFLSHMAELQHSDVDWQLHYCSRNPESCAFRDELVQHPQAEKVHLHHSSTGTRLELARLLADIEPGTHVYTCGPEALIEAVRSEAARLDIAADTLHFEQFAIEDKTGDAFTLVLARSGKEFVVPEEMTILQVIENNKAAKVECLCREGVCGTCETAILEGEADHRDQYFSDEERASQQSMLICCSRAKGKRLVLDL
YeaW variant R83Q
  L-carnitine depletion activity (wild type = 100%): 51%
  O2 depletion activity (wild type = 100%): 59%
YeaW variant D135S
  L-carnitine depletion activity (wild type = 100%): 106%
  O2 depletion activity (wild type = 100%): 106%
YeaW variant D221S
  L-carnitine depletion activity (wild type = 100%): 91%
  O2 depletion activity (wild type = 100%): 99%
YeaW variant K117E
  L-carnitine depletion activity (wild type = 100%): 63%
  O2 depletion activity (wild type = 100%): 75%
YeaW variant K138S
  L-carnitine depletion activity (wild type = 100%): 96%
  O2 depletion activity (wild type = 100%): 97%
YeaW variant K117S
  L-carnitine depletion activity (wild type = 100%): 122%
  O2 depletion activity (wild type = 100%): 109%
YeaW variant E330S
  L-carnitine depletion activity (wild type = 100%): 92%
  O2 depletion activity (wild type = 100%): 85%
